# Measured values published in the supplement of paper PMC12042874.
# ± gives the uncertainty stated by the source.
# Assay: amyloid nucleation score (Sup35N fusion, yeast selection) (log enrichment); library NNK1; higher = more nucleation; inactive = no reads after selection
# Procedure, shortened: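 Peptides of 20 random codons, each fused to Sup35N, were expressed in psi-negative yeast. Cells were induced with 100 μM copper sulfate for 24 hours and grown 7 days at 30°C on medium lacking adenine and uracil, and plasmid inserts before and after selection were Illumina-sequenced. Nucleation scores are DiMSum log enrichments of output over input reads, centred on the mode score of non-aggregating sequences, and sequences under 100 input reads were excluded.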
row,Substance,amyloid nucleation score
1,TWKAIWSEWYRTVPTGVLSN,0.461 ± 0.42
2,YSSGYLWFFIGTS,-1.38 ± 1.7
3,NKFGQSAGYLSTFACAVGIG,0.595 ± 0.39
4,VEKRKTFRLGAFGEVRVICS,0.461 ± 0.99
5,PVQDGSLGCQSHYCSRYCYV,-0.129 ± 0.46
6,DLDCFRFVLSLGDFMGRCVS,0.266 ± 0.42
7,DNQVLCYECRGYWMQTVHVL,0.069 ± 0.97
8,IILFSSVGCSMCMTSGLEGF,6.964 ± 0.066
9,NGLCLDDIVRLFVIITSVGP,0.821 ± 1.1
10,VFWSV,-0.096 ± 0.5
11,NYYLECWYSCMGNTETSSKG,0.212 ± 0.53
12,SDHRTW,0.743 ± 0.42
13,SYSFWPMQLTCYFFDVGRCL,7.434 ± 0.073
14,SGNSSFIVILNKRTFRLCRY,1.41 ± 0.18
15,SSLQFEMVFGTCYCRKSYSR,4.19 ± 0.082
16,VASRTLLCSLGRKRVVVCGC,-0.667 ± 0.29
17,DPAHLSGWLLCSP,0.624 ± 0.45
18,FHHCFIQTSSDAVSSGLDFE,0.644 ± 0.78
19,YIWAFLVGFVLTHYCSPHPD,-1.07 ± 0.68
20,SETFKRE,-0.328 ± 0.66
21,SCYVWDCENGSTLFIFVARR,inactive
22,YVCDKFYGNAQCF,0.644 ± 0.4
23,IFEIAESDLVYDHFSHYFKR,-0.033 ± 0.67
24,TKIHLPYCYANLVNHSVQHK,0.704 ± 0.61
25,EMALKVVMWC,inactive

row,Substance,amyloid nucleation score
1,VIHYCYSCFSADQAGLLFTR,2.22 ± 0.14
2,KRDLPTQTTDNLACSWAPTQ,-0.884 ± 2.4
3,NHMFPMVVTYLWSCFIIGSV,2.42 ± 0.37
4,ENHSECNWRKCQQTLISHEC,0.487 ± 0.71
5,IISVTVFFKCARLEILNR,-0.64 ± 0.57
6,VQYLMWSFTVAKLVMQDYHG,0.835 ± 0.43
7,WAFIHSCRYKLTCGGYFYAR,-0.236 ± 1.2
8,GFMVDERSTIVEDLPRSADV,-0.913 ± 0.34
9,WFSTDGWKNMSDSLASWSCY,0.863 ± 0.42
10,VTRVLLVKWPYNTVETCGGA,-0.317 ± 0.33
11,FFHNTSHASYIK,1.09 ± 0.13
12,ARRASVEFSYSTLERGMWRC,1.9 ± 0.18
13,QVNFNRRFNTQAIFNLSGVP,0.947 ± 0.71
14,NSDLWIGVCAVLSGLMTIIG,0.509 ± 0.64
15,TWDFSFDQGIKY,-0.125 ± 0.32
16,VHLCLCRCVLCAENGLWPFS,-0.761 ± 1.2
17,VVWILMSAQNRMAPRFDVLT,1.06 ± 0.51
18,SLWRDKDISWGGKSYVHVPS,1.14 ± 0.75
19,LTEYFSSVVEYDGYPVLSE,-0.91 ± 1
20,FSRFLYEYGCGELVATFLPW,0.517 ± 0.24
21,RRTTSMERYCR,0.291 ± 0.43
22,FHASATRTFIVFCIC,0.556 ± 0.38
23,YSESVCSLLPQYSPVHPLFT,0.891 ± 0.97
24,CHSHDVCRGMLT,-0.135 ± 0.38
25,SLVSYSVHANFCVFIWTNGS,1.25 ± 0.44

row,Substance,amyloid nucleation score
1,GFSLSPRAWRTGGVWAECAE,0.7 ± 0.82
2,TRQYIEVSVNLCYIVVDKKN,-0.203 ± 0.39
3,LGRGTKMLLKVYTVRTSNYR,0.592 ± 0.58
4,HQIFIWVVGLGTFETPRNHK,5.96 ± 0.066
5,NKNSGSRHHHVTYQLTPGER,inactive
6,WCNNYLSRLCRRVINLEAGL,-1.13 ± 1.9
7,CRSVVGVGSCRTGPEEGVYP,-0.106 ± 1.7
8,PRGVFYCLCYLVTCLAEFYE,-0.311 ± 0.36
9,GSRRDRISLRSQRVCILEKG,1.95 ± 0.6
10,FGLIATTETRAVSKMNVFDN,1.56 ± 0.49
11,GNAWCGLGSKKYCVWLYHYS,0.214 ± 0.28
12,TVLDFCFWYAGVVFKYARFV,-0.932 ± 0.39
13,VPCLVRA,0.506 ± 0.99
14,LYDRCYGIRSSAIEGEEYKR,0.806 ± 0.97
15,AMGRGLNWCPIGFVVSDMQR,1.39 ± 0.67
16,DIVRWLCPHRTK,1.23 ± 0.93
17,APDDSRQCSETESSGFLTHW,0.366 ± 0.47
18,VRVFGVTEYNRSCSI,-0.847 ± 1.1
19,SGQIQFIMIR,0.727 ± 0.67
20,FEIMQPNAHISCHYCYLVNM,5.01 ± 0.059
21,CIEDVCCS,-0.016 ± 0.23
22,LLVCSMHFISMTPVMPNSTA,2.12 ± 0.24
23,LQGCGYYKFGITEEWH,0.415 ± 0.78
24,FQSSNSSYITIHYCLVGRFT,6.013 ± 0.048
25,LNSYVRG,0.201 ± 0.3

row,Substance,amyloid nucleation score
1,ELTLGLCSYSVRRSCGEGSW,6.62 ± 0.082
2,IHRFKFGG,1.98 ± 0.2
3,VWRTYVGPVCSMLAG,0.641 ± 0.32
4,TCIVSWWYSQDGSWEMCLQR,inactive
5,YYMLGYLDSYLWSENDLWMC,0.642 ± 0.36
6,IYLLLCLENRVDMLE,inactive
7,TCRTEKTNTELMG,1.78 ± 0.6
8,CVCMVRYGVRAHR,0.469 ± 0.64
9,IPCDFDRISSSVFAKCNYSI,-0.455 ± 0.24
10,LADGLTVRSKYYISVNSVGS,-0.16 ± 0.4
11,VNTIQASMYW,1.22 ± 0.62
12,TTGKFDLFGDYHRGSLYSSV,-0.768 ± 0.49
13,HSGFNVAAYFTSMN,0.467 ± 0.9
14,GINNIYGLRYRHMPTSSIVA,1.88 ± 0.39
15,LWATNFCNTGFVYSLCIFSR,3.89 ± 0.12
16,FMLWCQFKRDNIKRTDRLAV,1.46 ± 0.78
17,TKVDRLALSM,0.658 ± 0.59
18,TTLVLTADLAVNPRRWWTMI,0.373 ± 0.43
19,NYRRQLSFLRLSGQDMLEGK,0.184 ± 0.53
20,SCIVLYMKGSGISCTNYTYC,6.094 ± 0.054
21,NYRISAYCDSHVRRLPEYMF,0.175 ± 0.59
22,MLACDVISPFCYVNWKRLCR,2.43 ± 0.15
23,VWLRIM,-0.957 ± 2.4
24,SKSCFFKQYLTSIIYLHTKK,0.418 ± 0.32
25,CTDVNSQ,0.033 ± 0.9

row,Substance,amyloid nucleation score
1,PKFAHILTHGVSHMQWTVVK,0.06 ± 0.35
2,ILPKWAK,0.7 ± 0.97
3,ESHRRR,0.569 ± 0.62
4,TYCKASGVR,0.371 ± 0.75
5,RKLFDCGINACSLRYVTSYR,inactive
6,RSSRAPWRSSCGGMF,-0.494 ± 0.48
7,TEDAQRGD,-0.302 ± 0.5
8,GFMICVADTGTANSSYVDVF,-0.201 ± 0.36
9,RELLGGVRNRLVYR,-0.192 ± 0.23
10,FASLFYKLQASLFTLDNIMH,-0.006 ± 0.88
11,APAAIINFLDPHICARMAMF,-0.513 ± 1.3
12,HSNIRMCKAECSRGELH,0.812 ± 0.61
13,FGAVVADGMKLFSVSFS,-0.711 ± 0.52
14,SQLGMAWLSHGVDLPIRFYK,0.241 ± 1.4
15,WLWIRFIAVTSSSVEIRANS,-0.834 ± 0.54
16,TAILLNVFKCSIFWVALK,-0.691 ± 0.72
17,SLSRNYHPFRAKIFLCLGRN,0.097 ± 0.82
18,YDTNDGFMTGVQ,-1.56 ± 1.3
19,DNSLYE,-2.11 ± 2.7
20,GCSLLHLRVWYLSDHIIMRS,0.834 ± 0.36
21,NNVNEVWWA,0.249 ± 0.69
22,RPQYLCAAVHEVQRFGHNR,-0.79 ± 0.51
23,CILAGGSSVGLNCVGMSTCG,0.438 ± 0.8
24,VNSNGTPCSMGIHMSGSYSP,0.226 ± 0.48
25,ATCCNSWIAF,7.035 ± 0.054

row,Substance,amyloid nucleation score
1,NRSRWPIHGFLIANKSPLQF,0.486 ± 0.38
2,KKVGRHFDLCALDRTQSGCW,-0.162 ± 0.39
3,GTRWSHTWWPGTNLMLCVQG,-0.453 ± 0.26
4,YKSSILPTEFGFACKPWGHL,0.3 ± 0.55
5,YNEERGCSAC,-0.209 ± 0.33
6,KVIRAGHDVVPRTYRRRSRR,1.29 ± 0.58
7,ARRGVVNPYLSVEFFFRRGL,0.493 ± 0.68
8,LMSWEL,0.462 ± 1.2
9,ILYCLNLVIHLCQRYSLILR,1.97 ± 0.56
10,VNKLLS,-0.04 ± 0.28
11,FNLGSGDWL,-0.842 ± 0.65
12,GHWLYMTYLCL,0.459 ± 0.75
13,TLVKVRSELYSGRDAYELVS,0.035 ± 0.26
14,CLRGLNAPLYNRCFAGILLG,-0.6 ± 0.36
15,NYCGLGSMYL,1.1 ± 0.8
16,ILGMFSTICDGWADVMH,0.525 ± 0.36
17,LKTSRMFLG,-0.68 ± 0.39
18,RLFLKPAQWPNH,0.562 ± 0.67
19,IAREVSSVTVSPQEGTRWWG,0.276 ± 0.3
20,TLGVMEGRNSDSLTVCRVGS,1.06 ± 0.5
21,AHPSNSYGRNNGVLASHRWD,-0.847 ± 0.41
22,PSMEWWGL,0.158 ± 0.88
23,SVVLMLKYRYMHLTGLWSWS,0.16 ± 0.46
24,STSMDPLYYDYDRLYKIHDK,0.484 ± 0.61
25,VCMRTAGCFSDTYGVHGFKI,1.21 ± 0.24

row,Substance,amyloid nucleation score
1,MMSFVEKPQGESSSNEWGVN,-0.777 ± 2.4
2,ASYTIND,-0.57 ± 1.1
3,SMTVNDTLLRLRVGSAILYF,-0.852 ± 0.4
4,MQFLVVLCQCQFLNRVRGCA,1.5 ± 0.35
5,SFSVVCRLKRAFGLAVIVRR,0.184 ± 1.2
6,LYSVISPLSEDTYDCLSVPY,0.297 ± 0.79
7,YGLPLWCNMCSRSANRC,0.365 ± 0.48
8,CYRIDGSYYQLSCSYVYVRV,-0.837 ± 1.1
9,FLYPVHLVLHCSTSYMQTDS,0.241 ± 1.2
10,ERKRTFY,0.536 ± 0.41
11,SSGVSNQSIQDIDMRLVYFA,0.06 ± 0.35
12,RHALGLFRSGLGMDMDDNGS,inactive
13,GKNWSFLTSYFCWFTLKIH,1.4 ± 0.35
14,IKGQGVKVSVVLTAGTCRLW,1.17 ± 0.19
15,GNGFVL,0.999 ± 0.45
16,RYYLMVFFKWIFEIWKMVLK,-0.646 ± 0.28
17,LCLISDMPKHFGCGYTKCSL,-1.17 ± 0.63
18,SCKYSAQNLWHLFYRNSLSS,-2.29 ± 2.1
19,ILGFSRWNLNCISSRGRKIR,-0.297 ± 0.39
20,TIALM,0.335 ± 0.33
21,DTPNISAFYLWNLRKRLMIF,-0.023 ± 0.31
